Numbering of substitutions follows the chain as printed.
B1: DLL3#3/CD3#1 (bispecific antibody, human IgG1, kappa, lambda, L234A L235A)
chain 1: DIQMTQSPSAMSASVGDRVTITCRASQGISNYLVWFQQKPGKAPKRLIYAVSSLYSGVPSRFSGSGSGTEFTLTISSLQPEDFATYYCLQHDSYPYTFGQGTKLEIKRTVAAPSVFIFPPSDEQLKSGTASVVCLLNNFYPREAKVQWKVDNALQSGNSQESVTEQDSKDSTYSLSSTLTLSKADYEKHKVYACEVTHQGLSSPVTKSFNRGECGGGGSEGKSSGSGSESKSTEGKSSGSGSESKSTGGGGSQVQLVQSGAEVKKPGASVKVSCKASGYTFTSYYVHWVRQAPGQGLEWMVIINPGGGTTSYAQKFLGRVTMTRDTSTNTVYMELKSLRSEDTAVYYCARGEAVTGNYFYYGMDVWGQGTTVTVSSASTKGPSVFPLAPSSKSTSGGTAALGCLVKDYFPEPVTVSWNSGALTSGVHTFPAVLQSSGLYSLSSVVTVPSSSLGTQTYICNVNHKPSNTKVDKRVEPKSCDKTHTCPPCPAPEAAGGPSVFLFPPKPKDTLMISRTPEVTCVVVDVSHEDPEVKFNWYVDGVEVHNAKTKPREEQYNSTYRVVSVLTVLHQDWLNGKEYKCKVSNKALPAPIEKTISKAKGQPREPQVYTLPPSREEMTKNQVSLWCLVKGFYPSDIAVEWESNGQPENNYKTTPPVLDSDGSFFLYSKLTVDKSRWQQGNVFSCSVMHEALHNHYTQKSLSLSPG
chain 2: EAVVTQEPSLTVSPGGTVTLTCRSSTGAVTTSNYANWVQEKPGQLPRGLIGGTNKRAPWVPARFSGSLLGGKAALTLSGAQPEDEAEYFCALWYSNLWVFGGGTKLTVLGQPKAAPSVTLFPPSSEELQANKATLVCLISDFYPGAVKVAWKADGSPVNTGVETTTPSKQSNNKYAASSYLSLTPEQWKSHRSYSCQVTHEGSTVEKTVAPAECSGGGGSEGKSSGSGSESKSTEGKSSGSGSESKSTGGGGSEVQLVESGGGLVQPGGSLKLSCAASGFTFNTYAMNWVRQAPGKGLEWVARIRSKYNNYATYYADSVKDRFTISRDDSKNTAYLQMNNLKTEDTAVYYCVRHGNFGNSYVSWFAYWGQGTLVTVSAASTKGPSVFPLAPSSKSTSGGTAALGCLVKDYFPEPVTVSWNSGALTSGVHTFPAVLQSSGLYSLSSVVTVPSSSLGTQTYICNVNHKPSNTKVDKRVEPKSCDKTHTCPPCPAPEAAGGPSVFLFPPKPKDTLMISRTPEVTCVVVDVSHEDPEVKFNWYVDGVEVHNAKTKPREEQYNSTYRVVSVLTVLHQDWLNGKEYKCKVSNKALPAPIEKTISKAKGQPREPQVYTLPPSREEMTKNQVSLSCAVKGFYPSDIAVEWESNGQPENNYKTTPPVLDSDGSFFLVSKLTVDKSRWQQGNVFSCSVMHEALHNRFTQKSLSLSPG
notes: Heterodimer of one DLL3 chain and one CD3 chain (scFab-Fc, knob-in-hole)
B2: DLL3#3/CD3#2 (bispecific antibody, human IgG1, kappa, lambda, L234A L235A)
chain 1: B1 chain 1
chain 2: B1 chain 2 with N309I
notes: as for B1

Assays:
[1] = molecular target: T1, human DLL3 (endogenous, on SCLC cell lines NCI-H82 and SHP77 and in SCLC tissue) (human, UniProt Q9NYJ7 27-618); experiment: cell-based or functional assay
T1 sequence (looked up): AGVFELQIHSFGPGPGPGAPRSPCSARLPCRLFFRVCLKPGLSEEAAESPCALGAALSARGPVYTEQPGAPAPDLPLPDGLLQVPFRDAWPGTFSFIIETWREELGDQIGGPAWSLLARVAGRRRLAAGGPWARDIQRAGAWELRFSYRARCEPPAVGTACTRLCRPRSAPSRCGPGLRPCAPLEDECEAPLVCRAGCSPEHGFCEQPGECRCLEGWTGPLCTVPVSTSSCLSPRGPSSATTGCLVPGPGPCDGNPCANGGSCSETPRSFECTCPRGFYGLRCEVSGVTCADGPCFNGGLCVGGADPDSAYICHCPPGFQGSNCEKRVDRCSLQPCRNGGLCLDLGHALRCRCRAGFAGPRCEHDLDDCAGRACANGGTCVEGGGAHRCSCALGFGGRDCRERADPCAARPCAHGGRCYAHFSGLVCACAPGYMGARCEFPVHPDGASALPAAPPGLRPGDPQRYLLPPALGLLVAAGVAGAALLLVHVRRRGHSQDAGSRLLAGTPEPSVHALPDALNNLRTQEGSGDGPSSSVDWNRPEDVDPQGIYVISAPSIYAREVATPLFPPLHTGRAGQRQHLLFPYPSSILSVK

Cyno DLL3-His [2] = molecular target: T2, Cyno DLL3-His (cynomolgus monkey, UniProt Q9NYJ7 27-492 (human entry)); experiment: SPR (ProteOn XPR36), bispecific captured on protein A/G, DLL3 as analyte, Example 4A
T2 construct: also called cy DLL3; recombinant cyno DLL3-ECD
T2 chain: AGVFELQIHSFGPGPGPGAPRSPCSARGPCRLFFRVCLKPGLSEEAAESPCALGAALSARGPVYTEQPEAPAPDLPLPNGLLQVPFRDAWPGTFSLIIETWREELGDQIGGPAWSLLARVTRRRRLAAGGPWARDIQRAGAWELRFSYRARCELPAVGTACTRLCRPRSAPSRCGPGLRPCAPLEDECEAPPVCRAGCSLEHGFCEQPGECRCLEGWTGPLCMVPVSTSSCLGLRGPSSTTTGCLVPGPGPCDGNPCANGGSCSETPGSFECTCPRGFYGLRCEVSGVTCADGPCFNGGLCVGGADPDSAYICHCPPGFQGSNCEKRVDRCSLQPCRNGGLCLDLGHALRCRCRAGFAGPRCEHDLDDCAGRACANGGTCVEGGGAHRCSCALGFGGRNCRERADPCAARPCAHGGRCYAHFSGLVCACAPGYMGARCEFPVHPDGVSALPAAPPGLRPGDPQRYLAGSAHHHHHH
Experimental: (§1) The binding affinity of purified DLL3/CD3 bispecific constructs for recombinant human and cyno DLL3-ECD and Fc-fusion proteins of human and cyno CD3 εγ subunits was determined by Surface Plasmon Resonance (SPR), using a ProteOn XPR36 instrument (Bio-Rad). The running buffer and all dilutions (except where stated) were done in PBS-T-EDTA. The GLM sensor chip (Bio-Rad) was normalized and pre-conditioned as per the manufacturer's recommendations. The sensor chip was activated with equal mixture of EDC/s-NHS in the horizontal direction for 300 sec at a flow rate of 30 ul/min and immobilized with protein A/G (20 ug/ml in 10 mM acetate pH 4.5) in the horizontal direction for 300 sec at a flowrate of 30 ul/min resulting in ˜5000 RU of protein A/G on the surface. The sensor chip was deactivated with 1M ethanolamine HCl in the horizontal direction for 300 sec at a flowrate of 30 μl/min.
(§2) For binding kinetic determination to DLL3, bispecific molecules were captured individually on the protein A/G surface vertically for 250 sec at a flowrate of 25 μl/min. The baseline was stabilized by injecting PBS-T-EDTA for 60 sec at a flowrate of 40 μl/min horizontally. The analyte (hu DLL3 or cy DLL3) was injected horizontally over the captured antibody for 600 sec at a flowrate of 40 μl/min and a dissociation for 2700 sec.
(§3) The inter spot (interactions with sensor surface) and blank (PBS-T-EDTA) were subtracted from the raw data.

Human CD3 E+G HuFc-6xHis = molecular target: T3, Human CD3 E+G HuFc-6xHis (human); experiment: SPR (ProteOn XPR36), CD3εγ-Fc amine-coupled, bispecific as analyte, equilibrium fit, Example 4A
T3 construct: also called hu CD3εγ-Fc
Experimental: as §1
For binding kinetic determination to CD3, hu CD3εγ-Fc and cy CD3εγ-Fc (dissolved in pH 4.5 acetate) was immobilized directly onto the sensor surface through amine coupling for 140 sec at a flowrate of 30 μl/min vertically. The baseline was stabilized by injecting PBS-T-EDTA for 60 sec at a flowrate of 40 μl/min horizontally. The analyte (the bispecific molecule) was injected horizontally over the captured CD3εγ-Fc construct for 600 sec at a flowrate of 40 μl/min and a dissociation for 600 sec.
as §3

[3] = molecular target: T4, chicken egg white lysozyme (chicken, UniProt P00698 19-147); experiment: SPR (Biacore T200), lysozyme coupled to CM5 chip, non-specific binding assay
T4 construct: also called Lysozyme (positive)
Experimental: The experiment was performed on a Biacore T200. The dilution, surface preparation, and binding experiments were performed at 25° C. in 1×HBS-EP buffer prepared from 10× HBS-EP. The flow rate for both the immobilization protocol and binding experiment was at 5 μL/min.
To prepare the surface for the non-specific binding experiment, chicken egg white lysozyme and trypsin inhibitor from glycine max soybean were coupled manually to a series S CM5 chip with the surface density of 3000-5000 RU using the amine coupling kit according to the manufacture instructions.
Samples were prepared at 1 μM in 1×HBS-EP buffer. The samples were injected over activated surfaces with a 10 min association and 10 min dissociation. The data was collected using Biacore T200 Control Software version 2.0.1 and analyzed using Biacore T200 Evaluation Software version 3.0.

[4] = molecular target: T1, human DLL3 (endogenous, on SCLC cell …); experiment: cell-based or functional assay; remark: listed apart in the source
Cyno DLL3-His [5] = molecular target: T2, Cyno DLL3-His; experiment: SPR; ratio of the KD values for human and cyno DLL3
Experimental: as §1, §2, §3

T4 sequence (P00698 19-147): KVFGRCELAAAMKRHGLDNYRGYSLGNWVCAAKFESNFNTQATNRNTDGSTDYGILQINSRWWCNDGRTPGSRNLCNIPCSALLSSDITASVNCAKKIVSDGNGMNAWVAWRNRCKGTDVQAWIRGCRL
T3 sequence (chain, as listed by the source limits assumed): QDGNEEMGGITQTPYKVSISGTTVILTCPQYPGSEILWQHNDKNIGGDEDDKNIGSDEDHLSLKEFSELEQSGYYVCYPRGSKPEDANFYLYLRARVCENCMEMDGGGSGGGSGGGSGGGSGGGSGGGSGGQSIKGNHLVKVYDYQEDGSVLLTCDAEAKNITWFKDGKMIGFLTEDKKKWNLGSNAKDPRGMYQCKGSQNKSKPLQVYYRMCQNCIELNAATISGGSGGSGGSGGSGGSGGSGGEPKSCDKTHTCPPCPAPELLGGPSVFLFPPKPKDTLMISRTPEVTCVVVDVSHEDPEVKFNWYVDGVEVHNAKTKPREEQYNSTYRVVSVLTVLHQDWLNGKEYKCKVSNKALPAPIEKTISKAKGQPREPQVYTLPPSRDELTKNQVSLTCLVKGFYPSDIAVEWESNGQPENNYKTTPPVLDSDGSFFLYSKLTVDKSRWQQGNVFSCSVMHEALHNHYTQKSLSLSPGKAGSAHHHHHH

Binder | EC90, 72 hour cytotoxicity assay, purified T cells as effector cells, NCI-H82 target cells [1] [nM] | EC90, 72 hour cytotoxicity assay, purified T cells as effector cells, SHP77 target cells [1] [nM] | Kd (Cyno DLL3-His [2]) [nM] | Kd (Human CD3 E+G HuFc-6xHis) [nM] | binding result [3] | EC90, 72 hour cytotoxicity assay (LDH release), non-stimulated PBMCs as effector cells, NCI-H82 target cells [4] [nM] | EC90, 72 hour cytotoxicity assay (LDH release), non-stimulated PBMCs as effector cells, SHP77 target cells [4] [nM] | Affinity gap KD hu/cyno DLL3 (Cyno DLL3-His [5])
B1 | 0.27 | 0.02 | < 0.01 | 7 | no binding (tested: 1 µM) | 0.9 | 1.5 | 1
B2 | 2.5 | 3 | < 0.01 | 90 | no binding (tested: 1 µM) | 3.9 | 16.5 | 1
